Laboratory results published in IntAct's records for PubMed 31515488.

B1: Elongin-A2 (Homo sapiens), Q8IYF1 (parent)
chain: MAAGSTTLHAVEKLQVRLATKTEPKKLEKYLQKLSALPMTADILAETGIRKTVKRLRKHQHVGDFARDLAARWKKLVLVDRNTRPGPQDPEESASRQRFGEALQDQEKAWGFPENATAPRSPSHSPEHRRTARRTPPGQQRPHPRSHSREPRAERKCPRIAPADSGRYRASPTRTAPLRMPEGPEPAAPGKQPGRGHTHAAQGGPLLCPGCQGQPQGKAVVSHSKGHKSSRQEKRPLCAQGDWHSPTLIREKSCGACLREETPRMPSWASARDRQPSDFKTDKEGGQAGSGQRVPALEEAPDSHQKRPQHSHSNKKRPSLDGRDPGNGTHGLSPEEKEQLSNDRETQEGKPPTAHLDRTSVSSLSEVEEVDMAEEFEQPTLSCEKYLTYDQLRKQKKKTGKSATTALGDKQRKANESKGTRESWDSAKKLPPVQESQSERLQAAGADSAGPKTVPSHVFSELWDLSEAWMQANYDPLSDSDSMTSQAKPEALSSPKFREEAAFPGRRVNAKMPVYSGSRPACQLQVPTLRQQCAQVLRNNPDALSDVGEVPYWVLEPVLEGWRPDQLYRRKKDNHALVRETDELRRNHCFQDFKEEKPQENKTWREQYLRLPDAPEQRLRVMTTNIRSARGNNPNGREAKMICFKSVAKTPYDTSRRQEKSAGDADPENGEIKPASKPAGSSHTPSSQSSSGGGRDSSSSILRWLPEKRANPCLSSSNEHAAPAAKTRKQAAKKVAPLMAKAIRDYKRRFSRR
B2: Beta-taxilin (Homo sapiens), Q8N3L3 (parent)
chain: MEANHSEQLSAERQSTPPGDSSSLPSHNGLEKEDGQDSPTPVQPPEKEASVHPDISEELNRQLEDIINTYGSAASTAGKEGSARASEQPENAESPDNEDGDCEETTEEAGREPVASGEPPTVKEPVSNKEQKLEKKILKGLGKEANLLMQNLNKLQTPEEKFDFLFKKYAELLDEHRTEQKKLKLLQKKQVQIQKEKDQLQGEHSRAILARSKLESLCRELQRHNKTLKEEALQRAREEEEKRKEITSHFQSTLTDIQGQIEQQSERNMKLCQENTELAEKLKSIIDQYELREEHLDKIFKHRELQQKLVDAKLEQAQEMMKEAEERHKREKEYLLNQAAEWKLQAKVLKEQETVLQAQLTLYSGRFEEFQSTLTKSNEVFATFKQEMDKTTKKMKKLEKDTATWKARFENCNKALLDMIEEKALRAKEYECFVMKIGRLENLCRALQEERNELHKKIRDAEISEKDDQSQHNSDEEPESNVSVDQEIDAEEVNSVQTAVKNLATAFMIIHHPESTPHQSKETQPEIGSSQESADAALKEPEQPPLIPSRDSESPLPPLTPQAEAEGGSDAEPPSKASNSPAGLGAETQCEGLPVGAQADQASWKPEAEASGQAPQAPTEASLQKMEADVPAPACAAEEHVAAMVPACEPSRQPPRAAAEELPVGASAGPQPRNVADTNLEGVD

Variants of: B1
Conditions: with traf2_human TRAF2, Q12933
Chain of traf2_human TRAF2, Q12933 (Q12933 whole entry): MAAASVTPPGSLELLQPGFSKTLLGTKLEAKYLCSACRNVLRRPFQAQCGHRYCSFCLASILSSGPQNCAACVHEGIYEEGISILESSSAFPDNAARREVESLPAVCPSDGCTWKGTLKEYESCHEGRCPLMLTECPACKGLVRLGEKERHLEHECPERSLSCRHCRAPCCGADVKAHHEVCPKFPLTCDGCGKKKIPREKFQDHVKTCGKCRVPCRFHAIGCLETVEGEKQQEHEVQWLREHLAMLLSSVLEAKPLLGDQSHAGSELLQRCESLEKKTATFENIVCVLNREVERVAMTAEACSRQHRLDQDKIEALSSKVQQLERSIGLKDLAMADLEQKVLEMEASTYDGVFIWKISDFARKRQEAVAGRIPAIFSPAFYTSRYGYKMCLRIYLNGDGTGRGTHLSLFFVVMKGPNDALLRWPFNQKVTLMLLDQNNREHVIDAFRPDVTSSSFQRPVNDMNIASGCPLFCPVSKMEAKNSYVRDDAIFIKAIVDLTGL
For R498Q, the “effect of a mutation on the interaction” value was “with no effect”. With A403S the “effect of a mutation on the interaction” value was “with no effect”. For R179P, the “effect of a mutation on the interaction” value was “with no effect”. With A446T the “effect of a mutation on the interaction” value was “with no effect”. For T6S, the “effect of a mutation on the interaction” value was “with no effect”. G505R was tested, and the “effect of a mutation on the interaction” value was “with no effect”. C254F was tested, and the “effect of a mutation on the interaction” value was “with no effect”.

Variants of: B2
Conditions: with cep70_human CEP70, Q8NHQ1
Chain of cep70_human CEP70, Q8NHQ1 (Q8NHQ1 whole entry): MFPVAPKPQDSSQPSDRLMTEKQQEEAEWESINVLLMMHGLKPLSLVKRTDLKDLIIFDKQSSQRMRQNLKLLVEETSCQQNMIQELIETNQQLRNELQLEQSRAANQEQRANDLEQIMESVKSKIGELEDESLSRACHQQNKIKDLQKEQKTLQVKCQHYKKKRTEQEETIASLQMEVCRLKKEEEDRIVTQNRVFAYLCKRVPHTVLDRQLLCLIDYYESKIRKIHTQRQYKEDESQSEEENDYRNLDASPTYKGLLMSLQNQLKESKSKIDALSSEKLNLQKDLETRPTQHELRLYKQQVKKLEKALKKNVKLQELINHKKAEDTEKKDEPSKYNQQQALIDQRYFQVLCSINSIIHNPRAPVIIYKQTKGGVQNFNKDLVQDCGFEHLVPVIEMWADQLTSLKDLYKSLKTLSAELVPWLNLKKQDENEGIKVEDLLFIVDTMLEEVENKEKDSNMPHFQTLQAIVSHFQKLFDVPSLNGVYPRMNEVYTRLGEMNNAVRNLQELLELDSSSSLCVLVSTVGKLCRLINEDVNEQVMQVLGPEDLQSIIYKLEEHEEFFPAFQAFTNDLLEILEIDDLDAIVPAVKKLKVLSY
T523I was tested, and the “effect of a mutation on the interaction” value was “with no effect”. T361A was tested, and the “effect of a mutation on the interaction” value was “with no effect”.

Variants of: B2
Conditions: with exoc5_human EXOC5, O00471
Chain of exoc5_human EXOC5, O00471 (O00471 whole entry): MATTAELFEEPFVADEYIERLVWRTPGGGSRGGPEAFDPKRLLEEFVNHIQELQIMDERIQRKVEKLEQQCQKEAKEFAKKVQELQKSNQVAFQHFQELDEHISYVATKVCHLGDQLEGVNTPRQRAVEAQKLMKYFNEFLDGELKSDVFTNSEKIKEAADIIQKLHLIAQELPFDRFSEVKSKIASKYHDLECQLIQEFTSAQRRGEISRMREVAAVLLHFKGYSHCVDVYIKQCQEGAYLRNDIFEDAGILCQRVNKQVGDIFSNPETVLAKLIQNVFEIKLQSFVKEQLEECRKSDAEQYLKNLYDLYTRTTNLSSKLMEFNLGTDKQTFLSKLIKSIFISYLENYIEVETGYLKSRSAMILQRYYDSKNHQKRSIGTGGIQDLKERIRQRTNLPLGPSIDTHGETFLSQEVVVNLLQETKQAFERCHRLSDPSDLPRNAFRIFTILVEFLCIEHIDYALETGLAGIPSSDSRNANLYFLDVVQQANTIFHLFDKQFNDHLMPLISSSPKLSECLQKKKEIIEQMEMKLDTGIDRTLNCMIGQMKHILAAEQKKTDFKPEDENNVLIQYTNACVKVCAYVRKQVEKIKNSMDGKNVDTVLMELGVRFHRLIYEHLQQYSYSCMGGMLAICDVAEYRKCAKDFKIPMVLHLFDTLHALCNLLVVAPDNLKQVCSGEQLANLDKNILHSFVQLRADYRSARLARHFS
I527T was tested, and the “effect of a mutation on the interaction” value was “with no effect”.

Variants of: B2
Conditions: with mbip1_human MBIP
With I527T the “effect of a mutation on the interaction” value was “with no effect”.
